Measurements from paper PMC3399738.

What was measured:
RPA (human heterotrimer) [1] = biological target: T1, RPA (human heterotrimer) (human, UniProt P27694;P15927;P35244 1-616;1-270;1-121); assay: pull-down
SSB = SSB (Escherichia coli, UniProt P0AGE0 1-178); assay: pull-down
RPA (human heterotrimer) [2] = biological target: T1, RPA (human heterotrimer); assay: EMSA
RPA (human heterotrimer) [3] = biological target: T1, RPA (human heterotrimer); assay: EMSA; remark: listed apart in the source

T1 sequence (P27694 whole entry, chain 1 of 3): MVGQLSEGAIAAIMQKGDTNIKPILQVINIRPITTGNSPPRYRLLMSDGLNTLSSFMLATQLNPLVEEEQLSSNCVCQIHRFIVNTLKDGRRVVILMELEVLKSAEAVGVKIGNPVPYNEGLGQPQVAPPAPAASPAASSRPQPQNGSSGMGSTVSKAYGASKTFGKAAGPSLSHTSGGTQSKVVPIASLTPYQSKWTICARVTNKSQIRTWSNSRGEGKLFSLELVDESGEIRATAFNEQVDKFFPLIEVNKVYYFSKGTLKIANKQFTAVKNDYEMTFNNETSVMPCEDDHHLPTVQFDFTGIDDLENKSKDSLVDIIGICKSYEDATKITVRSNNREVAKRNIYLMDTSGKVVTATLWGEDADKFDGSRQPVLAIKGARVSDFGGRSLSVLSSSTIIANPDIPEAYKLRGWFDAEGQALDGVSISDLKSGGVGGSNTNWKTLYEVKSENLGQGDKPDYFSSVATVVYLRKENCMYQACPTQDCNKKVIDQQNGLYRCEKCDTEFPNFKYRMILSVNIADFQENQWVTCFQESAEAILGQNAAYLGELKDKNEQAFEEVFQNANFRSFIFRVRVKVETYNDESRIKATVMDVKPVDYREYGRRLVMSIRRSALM
T1 sequence (P15927 whole entry, chain 2 of 3): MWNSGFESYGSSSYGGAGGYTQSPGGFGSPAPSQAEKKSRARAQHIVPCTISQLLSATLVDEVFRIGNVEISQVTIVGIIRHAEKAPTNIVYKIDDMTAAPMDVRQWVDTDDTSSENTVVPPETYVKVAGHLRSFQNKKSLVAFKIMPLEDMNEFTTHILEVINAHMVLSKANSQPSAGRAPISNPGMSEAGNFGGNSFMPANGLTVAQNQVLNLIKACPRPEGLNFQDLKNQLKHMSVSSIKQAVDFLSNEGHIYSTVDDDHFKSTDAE
T1 sequence (P35244 whole entry, chain 3 of 3): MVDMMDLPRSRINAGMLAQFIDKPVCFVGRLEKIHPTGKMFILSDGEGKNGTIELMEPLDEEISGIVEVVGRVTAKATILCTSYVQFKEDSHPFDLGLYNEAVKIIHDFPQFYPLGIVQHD
Sequence of SSB (P0AGE0 whole entry): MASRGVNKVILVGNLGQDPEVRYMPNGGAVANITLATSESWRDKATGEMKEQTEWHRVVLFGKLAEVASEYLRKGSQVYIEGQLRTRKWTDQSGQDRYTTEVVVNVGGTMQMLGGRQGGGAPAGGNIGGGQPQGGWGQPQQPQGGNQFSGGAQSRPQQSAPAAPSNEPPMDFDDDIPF

B1: polyT(30) 3' biotin (ssDNA)
DNA: TTTTTTTTTTTTTTTTTTTTTTTTTTTTTT
binding result (RPA (human heterotrimer) [1]): binds
binding result (SSB): binds

B2: dT30/dA30 duplex (dsDNA)
DNA 1: B1 DNA
DNA 2: AAAAAAAAAAAAAAAAAAAAAAAAAAAAAA
binding result (RPA (human heterotrimer) [2]): binds

B3: polyT(30) 5' IRDye-700 (ssDNA)
DNA: B1 DNA
binding result (RPA (human heterotrimer) [3]): binds
